In patent US20260092096A1 (35PHARMA, published 2026):

B1: P1375 (hActRIIB L33W, 19 aa linker, IgG1 YTE-DL) (Fc fusion)
chain: ETRECIYYNANWELERTNQSGLERCEGEQDKRWHCYASWRNSSGTIELVKKGCWLDDFNCYDRQECVATEENPQVYFCCCEGNFCNERFTHLPEAGGPEVTYEPPPTGGGGSGGGGSGGGGSGGGGTHTCPPCPAPELLGGPSVFLFPPKPKDTLYITREPEVTCVVVDVSHEDPEVKFNWYVDGVEVHNAKTKPREEQYNSTYRVVSVLTVLHQDWLNGKEYKCKVSNKALPAPIEKTISKAKGQPREPQVYTLPPSRDELTKNQVSLTCLVKGFYPSDIAVEWESNGQPENNYKTTPPVLDSDGSFFLYSKLTVDKSRWQQGNVFSCSVMHEALHNHYTQKSLSLSPG
B2: P1372 (hActRIIB L33W, 14 aa linker, IgG1 YTE-DL) (Fc fusion)
chain: ETRECIYYNANWELERTNQSGLERCEGEQDKRWHCYASWRNSSGTIELVKKGCWLDDFNCYDRQECVATEENPQVYFCCCEGNFCNERFTHLPEAGGPEVTYEPPPTGGGGSGGGGSGGGGTHTCPPCPAPELLGGPSVFLFPPKPKDTLYITREPEVTCVVVDVSHEDPEVKFNWYVDGVEVHNAKTKPREEQYNSTYRVVSVLTVLHQDWLNGKEYKCKVSNKALPAPIEKTISKAKGQPREPQVYTLPPSRDELTKNQVSLTCLVKGFYPSDIAVEWESNGQPENNYKTTPPVLDSDGSFFLYSKLTVDKSRWQQGNVFSCSVMHEALHNHYTQKSLSLSPG

Key:
Experiment in all cases: cell-based or functional assay
[1] = molecular target: T1, activin B (UniProt P09529 293-407)
T1 sequence (looked up): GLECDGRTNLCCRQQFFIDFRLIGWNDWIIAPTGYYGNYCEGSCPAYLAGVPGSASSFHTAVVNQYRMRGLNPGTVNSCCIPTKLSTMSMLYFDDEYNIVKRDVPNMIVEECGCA

[2] = molecular target: T2, activin A (human, UniProt P08476 311-426)
T2 sequence (looked up): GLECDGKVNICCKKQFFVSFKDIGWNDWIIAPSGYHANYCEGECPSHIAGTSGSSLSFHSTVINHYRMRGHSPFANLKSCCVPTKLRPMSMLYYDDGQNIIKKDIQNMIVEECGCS

[3] = molecular target: T3, GDF-8 (UniProt O14793 267-375)
T3 sequence (looked up): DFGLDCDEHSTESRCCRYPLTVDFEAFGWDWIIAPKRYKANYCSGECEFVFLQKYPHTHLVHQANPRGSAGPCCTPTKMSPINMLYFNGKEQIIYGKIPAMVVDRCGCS

[4] = molecular target: T4, GDF-11 (UniProt O95390 299-407)
T4 sequence (looked up): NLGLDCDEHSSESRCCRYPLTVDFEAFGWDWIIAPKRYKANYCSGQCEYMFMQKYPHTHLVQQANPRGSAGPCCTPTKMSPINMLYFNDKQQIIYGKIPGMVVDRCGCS

[5] = molecular target: T5, BMP-10 (UniProt O95393 317-424)
T5 sequence (looked up): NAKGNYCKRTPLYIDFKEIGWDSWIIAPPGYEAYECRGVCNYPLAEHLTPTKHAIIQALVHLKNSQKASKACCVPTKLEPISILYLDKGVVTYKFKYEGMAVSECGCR

[6] = molecular target: T6, BMP-9 (UniProt Q9UK05 320-429)
T6 sequence (looked up): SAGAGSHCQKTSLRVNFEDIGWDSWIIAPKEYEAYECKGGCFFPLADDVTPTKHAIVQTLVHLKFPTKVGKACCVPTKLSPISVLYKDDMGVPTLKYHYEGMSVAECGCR

Molecule	IC50, TGFβ-reporter HEK293 cell-based neutralization assay [1] [nM]	IC50, TGFβ-reporter HEK293 cell-based neutralization assay [2] [nM]	IC50, TGFβ-reporter HEK293 cell-based neutralization assay [3] [nM]	IC50, TGFβ-reporter HEK293 cell-based neutralization assay [4] [nM]	IC50, BMP-reporter HepG2 cell-based neutralization assay [5] [nM]	IC50, BMP-reporter HepG2 cell-based neutralization assay [6] [nM]	fold increase in neutralization potency relative to P75 [6] [fold]	fold increase in neutralization potency relative to P75 [2] [fold]
P739 (hActRIIB G27E, 14 aa linker, IgG1-DL) (Fc fusion)	6	3.5	2	2.1	4	1.1	2	
P754 (hActRIIB T69Q, 14 aa linker, IgG1-DL) (Fc fusion)	2.1	1.5		1.6	2.5	3.5		
P753 (hActRIIB T69H, 14 aa linker, IgG1-DL) (Fc fusion)	2.4	1.6	1.4	1.5	2.9	2.1		1.5
B1	2	0.53	0.33	0.39	> 100	> 1000		
B2	2	0.56	0.18	0.53	> 100	> 1000		
